Assay: yeast display, Sf9 membrane polyspecificity reagent, FACS + sequencing; frameworks hold sequencing errors
In short: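 After 36–48 hours of galactose induction, yeast (Saccharomyces cerevisiae BJ5465) displaying a synthetic nanobody library were stained at 4 °C for 1 hour with 10% biotinylated, detergent-solubilized Sf9 membrane reagent. Streptavidin microbeads enriched the stained cells before FACS sorting into low and high (top ~1%) gates on anti-HA and streptavidin fluorescence. Each clone's polyreactivity label reflects its gate of origin.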

Row | Sequence | polyreactivity (PSR sort gate)
1 | QVQLVESGGGLVQAGGSLRLSCAASGSTFVYYVMGWYRQAPGKQRELVAAISTSGGSTYYADSVKGRFTISRDNAKKTVYLQMNSLKPEDTAVYYCAARVYYKYDYWGQGTQVTVSS | low polyreactivity
2 | QVQLVESGGGLVQAGGSLRLSCAASGSIFIYNAMGWYRQAPGKERELVAAISSSGGSTYYADSVKGRFTISRDYAKNTVYLQLNSLKPEDTAVYYCAARTYYVRGLGGRPGMDYWGQGTHVTVSS | low polyreactivity
3 | QVQLVESGGGLVQAGGSLRLSCAASGRTFPEYDMGWYIQAPGKERELVAAISTSGGSTYYADSVKGRFTISRDNAKNTVYLQMNSLKPEDTAVYYCAAQVTSIWGFTYAYRYDYWGQGTQVTVSS | low polyreactivity
4 | QVQLVESGGGLVQAGGSLRLSCAASGRPFISYAMGWYRQAPGKERELVAAISSSGGSTYYADSVKGRFTMSRDTAKNTVYLQMNSLKPEDTAVYYCNAAKVRRDPAWRLLDYWGQGTQVTVSS | low polyreactivity
5 | QVQLVDSGGGLVQAGVSLRLSCAASGSTFVFYAMGWYRQAPGKERELVAGISWSGGSTYYADSVKGRFTISRDNAKNTVYLQMNSLKPEDTAVYYCAARYTRYLGSGYYYCGQGTQVTVSS | high polyreactivity
6 | QVQLVESGGGLVQAGGSLRLSCAASGRTFWFYGMGWYRQAPGKEREFVARISASGGSTYYADSVKGRYTISRDNAKNTVYLQMNSLKPEDTAVYYCARDTPWRYYYWGQGTQVTVSS | high polyreactivity
7 | QVQLVESGGGLVQAGGSLRLSCAASGFIFSWYDMGWYRQAPGKERELVAAISYSGSNTYYADSVKGRFTISRDNAKNTVYLQMNSLKPEDTAVYYCAATLGSRWAIYDYWGQGTQVTVSS | high polyreactivity
8 | QVQLEESGGGLVQAGGSHRLSCAASGSTIYAYTMGWYRQAPGKERELVARISGRGGSTYYADSVKGRFTISRDNAKNTVYLQMNSLKQEDTAVYYCAARRKFDYWGQGTQVTVSS | high polyreactivity
9 | QVQLVESGGGLVQAGGSLRLSCAASGIIFAIYAMGWYRQAPGKERELVAAITWRGGSTYYADSVKGRFTISRDNAKNTVYLQMNSLKPEDTAVYYCAAVTKSLYGYDYWGQGSQVTVSS | low polyreactivity
10 | QVQLVESGGGVVQAGGSLRISCAASGSTFVRYAMGWYRQAPGKERELVASISSSGSTYYADSVKGRFTISRDYAKNTVNVELNCLNPEDNAVYYCAKQYGGRYGYWGQGSQVTVSS | low polyreactivity
11 | QVQLVESGGGLVQAGGSLRLSCAASGSIFGFNTMGWYRQAPGKEMELVATINWSGGSTYYADSVKGRFTISRDNAKNTVYLQMNSLKPEDTAVYYCNAGPFSGRLFTTYASWGRYDYWGQGTQVTVSS | low polyreactivity
12 | QVQLVESGGGLVQAGGSLRLSSAASGITFYWYAMGWYRQAPGKERELVAASTRSVGSTYYADSVNGRFTISRDNAKNTVYLQMNSLKPEDTAVYYCAADFYYYGFDYWGQGTQVTVSS | low polyreactivity
13 | QVHLVESGGGLVKAGGSLRLSCAASGNTFLWYAMGWYRQAPGKERELVAAITYSGGSTYYADSVKGRFTISRDNAKNTVYLQMNSLKPEYTPVYYCAAVGSYLAGYQFDYWGQGTQVNVSS | low polyreactivity
14 | QVQLIESGGGLVQAGGSLRLSCAASGGTFRAYAMGWYRQAPGKEREFVAAITWSGGRTYYADSVKGRFTISRDNAKNTVYLQMNSLKPEDTEVYYCATDQGHYYHAEHDYWGQGTQVTVSS | low polyreactivity
15 | QVQLVESGGGLVQAGGSLRLSCAASGSTFTIYDMGWSRQAPGKERELVASISQGAGSTYYADSVKGRFTISRDNAKNTVYLQMNSQKPEDTAVYYCAADWYQSYVFVYWEGEYWAQGTQVTVSS | high polyreactivity
16 | QVQLVESGGGLVQAGGSLRLSCDASGIIFVKYAMGWYRQAPGKERELVAAITSGGSTYYADSVKGRFTISRDNAKNTVYLQMNSLKPEDTAVYYCNADTWFLYFFTINGYWGQGTQVTVSS | high polyreactivity
17 | QDQLVESGGGLVQAGGSLRLSCAASGSTFAFKTMGWYRQAPGKERELVAGISSNGGRTYYADSVKGRFTISRDNAKNTVYLQMNSLKPEDTAVYYCNALRRYVSVRPTKSDYWGQGTQVTVSS | high polyreactivity
18 | QVQLVESGGGLVLAGGSLRLSCAASGRTFELNALGWYRQAPGKERELVAAISWSGGSTYYADSVKGRFTISRDNAKNTVYLQMNSLKPEDTSVYYCAAQYQQGPFVKYYYWGQGPQVTVSS | high polyreactivity
19 | QVQLVESGGGLVQAGGSLRLSCADSRSTFYIYAMGWYRQAPGKERELVAAIRRSGGSTYYADSVKGRFTISRDNAKNTVYLQMISLKPEDTAVYYCATRYLWRPRPYDYWGQGTQVTVSS | high polyreactivity
20 | QVQLVESGGGLVQAGGSLRLSCAASGIIFGSYAMGWYRQAPGKERELVAAISTSGGSTYYADSVKGRFTISRDNAKNTVYLQMNSLKPEDTAVYYCNKAGVYRDSSRYNYWGQGTQVTVSS | high polyreactivity
21 | QVQLVESGGGLVQAGGSLRLSCAASGSTFYYYAMGWYRQATGKERELVAAISGRGGSTYYADSVKGRFTISRDNAKNTVYLQMNSLKPEDTAVYYCNKRRAAGGFPYDYWGQGTQVTVSS | high polyreactivity
22 | QVQLVESGGGLVQAGGSLRLSCAASGSIFGYYAMGWYRQAPGTERELVAAINSDGSTDYADSVKGRFTISRDNAKNTVYLQMNSLKPEDTAVYYCATRYYSIFTFFISYTYDYWGQGTQVTVSS | low polyreactivity

Row | Sequence | polyreactivity (PSR sort gate)
23 | QVQLVESGGGLVQAGGSLRLSCAASGSNISDNEMGWYRPAPGKESELVAAINWGGTNTYYADSVKGRYTISRDNAKNTVYLQINRLKPEDTAVYYCNADIPRRPIRHYLYDYWGQGTQVTVSS | low polyreactivity
24 | QVQLVESGGGLVQAGGSLRLSCAASGIILYYYAMGWYRQAPGKERELVASISRGDSTNYADSVKGRFTISRDNAKNTVYLQMNSLKPEDTAVYCNKDYLPSLYRGFDYWGQGTQVTVSS | low polyreactivity
25 | QVQLVESGGGLVQAGGSLRLSCAASGFIFVGNDMGWYRQAPGKERELVAAISSGGTTIYADSVKGRFTISRDNAKNTVYLQMNSLKPEDTAVYFCAADYDYRQGYDSVHLDYWGQGTQVTVSS | low polyreactivity
26 | QVQLVESGGGLVQAGGSLRLSCAASGFIFGYYTMGWYRQAPGKERELVAGISYSGGSTYYADSVKGRFTISRDNAKNTVYLQMNSLKPEDTAVYYCNRADYRASYSGQGSYDYWGQGTQVTVSS | high polyreactivity
27 | QFQLVESGGGLVQAGGSLRLTCAASVSTFSSYVMGWYRQAPGKDRELVAAISSIGGSTYYADSVKGRFTISRDNAKTNDYLQMNSLKPEDTAVYYCAAEPPGSTYEGGYWGQGTQVTVSS | low polyreactivity
28 | QVQLVESGGGLVQAGGSLRLSCAASGRIFYYNGMGWYRQAPGKERELVAAITANGGSTYYADSVKGRFTISRDNAKHTVYLQMNSLKPEDTAVYYCAAVYQLYYSAGRGYDYWGQGTQVTVSS | high polyreactivity
29 | QVQLVESGGGLVQAGGSLRLSCAASGSIFVYNAMGWYRQAPGKEMELVASITWSGGRTYYADSVKGRFTISRDHAKNTVYLQMNSLKPEDTAVYYCNKRQYSRTFRYGYWGQGTQVTLSS | high polyreactivity
30 | QVQLVESGGGLVQAGGSLRLSCAASGFIFRYYAMGWYRQAPGKERELVAAIDYSGGSTNYADSVKGRFTISRDNAKNTVYLQMNSLKPEDTAVYYYDYWGQGTQVTVSS | low polyreactivity
31 | QVQVVESGGGLVQAGGSLRLSCAASGIIFKQNVMGRYIQAPGKERELVAAISRGGSTNYADSLKGRFTISRDNAKNTVYLQMNSLKPEDTEVYYCAARFVLRREYGYWGQGTQVTVSS | high polyreactivity
32 | QVQLVESGGGLVQAGGSLRLSCAASGSTFVNAMGWYRQAPGKERELVAAISLSGDSTYYADSVKGRFTISRDNAKNTVYLQMNCLKPEDTAVYYCNADGLGGEDPEYLWYPVPDYDYWGQGTQVTVSS | low polyreactivity
33 | QVQLVESGGGLVQAGGSLRLSCAASGITLKLYVMGWYRQAPGKERELVAAISRRGGSTYYADSVKGRFTISRDNAKNTVYLQMNSLKPEDTAVYYCAKDGTQYERQDPAYGYWGQGTQVTVSS | high polyreactivity
34 | QVQLVESGGGLVQAGGSLRLSCAASGSTFGNNAMGWYRQAPGKERELVAAITFRGTSTYADSVKGRFTISRDNAKNTVSLQMNSLKPEDTAVYYCAAVVYFVSYRFYYWGQGTQVTVSS | high polyreactivity
35 | QVQLVESGGGLVQAGGSLRLSRAASGSTFSGYTMGWYRQAPGKERELVAAISTSGGRTSYADSVKGRFTISRDNAKTSVYLQMNSLKPEDTAVYYCAARRWERRVRPGYYPYDYWGQGTQVTVSS | high polyreactivity
36 | QVQLVESGGGLVQAGGSLRLSCAASGGTFYDYAMGWYRQAPGKERELVAAISASGDSTYYADSVKGRFTISRDNAKNTVYLQMNSLKPEDTAVYYCAAEFTAFDGFDYWGQGTQVNVSS | low polyreactivity
37 | QVQLVESGGGLVQAGGSLRLSCAASGSIFGRNAMGWYRQAPGKEREIVAAISQRGGRTYYADSVKGRFTISRDNAKNTVYLQMNRLKPEDTAVYYCAATYTRVPNRFYYWGQGTQVTVSS | high polyreactivity
38 | QVQLVESGGGLVQAGGSLRLSCAASGFTFYRNPMGWYRQAPGKERELVAAISARGVSTYYADSVKGRFTISRDNAKNTVYLQMNSLKPEDTAVYYFSAVNYIYTGGGTYYYWGQGTQVTVSS | high polyreactivity
39 | QVQLVESGGGLVQAGGSLRLSCAASGGTFRYYTMVWYRQAPGKERELVAAITRGGRTYYADSVKGRFTISRDNAKNTVYIQMNSLKPEDTAVYYCAAVRPRSPVSYENDYWGQGTQVTVSS | high polyreactivity
40 | QVQLVESGRGLVQAGGTLRISFADSGRIFGNYAMGRYRQAPGKERELVAAIPWRGGRTRYADSVKGRFTISRDNAKNTVYLQMNSLKPEDTAVYYCAAPYTSSGPDDYWGQGTQVTVSS | high polyreactivity
41 | QVQLVESGGGLVQAGGSLRLSSASSGSTSWIYAMGWYRPEPGKERELVAAISGRDGSTNYADSVKGRFTISRDNAKNTVYLQMIRVKPEDTAVYDCNATGRSFKRYGGDYWGQGTQVTVSS | high polyreactivity
42 | QVQLVESGGGLVQAGGSLRLSCAASGSTFYIYAMGWYRQAPGKERELVAAITWRGGGTYYADSVKGRFTISRDNAKNTVYLQMNSLKPEDTAVYYCNADYPRSHYQYPYNYWGQGTQVTVSS | high polyreactivity
43 | QVQLVESGGGLVQAGGSLRLSCAASGFIGIYAMGWYRQAPGKERELVAAITTSGGRTYYADSVKGRFTISRDNAKNTVYLQMNSLKPEDTAVYYCAADYQAYTAEDKVIVWYDYWGQGTQVTVSS | low polyreactivity

— the nanobody polyreactivity screen of Harvey et al. (2022)
